Reference: patent US20220281931

Target: Strep II-Avi BCL6^5-360

B1: Flag-SIAH1^FL (protein)
chain: MSRQTATALPTGTSKCPPSQRVPALTGTTASNNDLASLFECPVCFDYVLPPILQCQSGHLVCSNCRPKLTCCPTCRGPLGSIRNLAMEKVANSVLFPCKYASSGCEITLPHTEKADHEELCEFRPYSCPCPGASCKWQGSLDAVMPHLMHQHKSITTLQGEDIVFLATDINLPGAVDWVMMQSCFGFHFMLVLEKQEKYDGHQQFFAIVQLIGTRKQAENFAYRLELNGHRRRLTWEATPRSIHEGIATAIMNSDCLVFDTSIAQLFAENGNLGINVTISMC
in vitro ubiquitination (western blot, Strep tag II antibody): BCL6 is a substrate for SIAH1 (FIG. 10D), and that the rate and magnitude of ubiquitination is accelerated by BI-3802 (FIG. 4B)
